Data reported in the DeepSol protein solubility set.

assay: soluble on expression in E. coli; label from the status in PepcDB or PDB records

Sequence | soluble on expression in E. coli
METIKSVDIYELGSPGEKSSPWSSTILIVKLTSSNGNIGYGEAPTTFMTLPVKESMREVERVFKDQNYFNIEKNMREFYKHSFYLSRSMEATSALSAFEIASWDLIGKDLGTPVYNLLGGEYNSELRAYANGWYSDCLEPDDFVSRAKEYIKKGYTAFKFDPFRNNFDRIGNDGIKKAVDIVSAMRSELGENIDLLIECHGRFSTKYAIKVGQALDEFNPLFIEEPIHPEMELGLFDFKRYVNTPVALGERLLNKEDFARYISQGMVDIVQADLTNSKGILEAKKISAIVESFGGLMAFHNAFGPVQTAATLNVDYTLTNFLIQESFEDSWPDWKRNLFSGYRIENGHFKLSGKPGLGITADEKLMEKLIYDGMEEFNKNEPSWVVSGTYK | not soluble
METPKGTIIFTTVGRTHYGFDVFSLNIATSVERRLTDGVSVNFNAQFVNDKSDDVVFVSERNGSARIYKTRSGISKPEQIPGAPESYFHDRPIITQNNRLYFISAHEQPDRYFKNWSALYTVELNSAKREVTRVTPPDTADFSPAVSQSGDFLAVASYGTRSWGGEFHEINTDITVFKASKPETRVVICERGGWPTWSGDSTVFFHHQADDGWWSIFRVDIPENFTEYTDFPITPIRVTPSGLHCFTPAAFRDGKRIALATRRRGVNHRHIEIYDLENTTFQPVTESLNPSFHHYNPFVSPDSEFLGYHRFRGESTQGESIVPNIESIVSPIKTLRLLRINGSFPSSSPNGDLIALNSDFDINGGIKVSKSDGSKRWTLIKDRTAFYNSWSPTERHVIYTSLGPIFSPARIAVQIARIKFDPSDLTADKEDLPCDVKILTLENTGNNAFPSCSPDGKSIVFRSGRSGHKNLYIVDAVNGESNGGGIRRLTDGPWIDTMPCWSPKGDLIGFSSNRHNPENTAVFGAYVVRPDGTGLRRIQISGPEGSEEAARERVNHVSFNKDGDWLVFAANLSGVTAEPVTMPNQFQPYGDLYVVKLDGTGLRRLTWNGYEDGTPTWHTADELDLSQLNLNGQDGDKLEGQFEEPLWISCDI | soluble
METRTAENTAIFMCKCCNLFSPNQSELVTHVSEKHGEEGVNVDDVIIPLRPLNTPENPNPSKGGDEFLVMKRKRGRPKGSTKKPSTEEEVVENLVSPSEDGPLATEEGSRLAPSSLECSKCCRKFSNTRQLRKHICIIVLNLGEEDGDAGNESDLDLEKTYKEDDREKASKRPRAQKTEKVQKISGKEAGQLSGAKKPIISVVLTAHEAIPGATKIIPVEAGPPETGAPPPETTAADLVPRRGYQEYAIQQTPYEQPMKSSRLGPTQLKIFTCEYCNKVFKFKHSLQAHLRIHTNEKPYKCSQCSYASAIKANLNVHLRKHTGEKFACDYCSFTCLSKGHLKVHIERVHKKIKQHCRFCKKKYSDVKNLIKHIRDMHDPQDKKVKEALDELRLMTREGKRQLLYDCHICERKFKNELDRDRHMLVHGDKWPFACELCGHGATKYQALELHVRKHPFVYVCALCLKKFVSSIRLRSHIREVHGAAQETLVFTSSINQSFCLLEPGGDIQQEALGDQLQLAAEEFVCPEIDVRKEEACPGEAQPEVGLRELVVPGDAHAPPPGPLATPQSESSSLSPCKLETTVVSSDLNSLGVVSDDFLLKSDTSSAEPPAAAEATSDTQHRDSAQTQGEEVTLLLAKAKSAGPDPESSPGGRQKVGALPASESDSSTCLRANPTEASDLLPTVTDGGDLGVCQPDSCTPSSEHHPGSTAFMKVLDSLQKKQMNTSLCERIRKVYGDLECEYCGKLFWYQVHFDMHVRTHTREHLYYCSQCHYSSITKNCLKRHVIQKHSNILLKCPTDGCDYSTPDKYKLQAHLKVHTELDKRSYSCPVCEKSFSEDRLIKSHIKTNHPEVSMNTISEVLGRRVQLKGLIGKRAMKCPYCDFYFMKNGSDLQRHIWAHEGVKPFKCSLCEYATRSKSNLKAHMNRHSTEKTHLCDMCGKKFKSKGTLKSHKLLHTSDGKQFKCTVCDYTAAQKPQLLRHMEQHASFKPFRCAHCHYSCNISGSLKRHYNRKHPNEEYTNVGSGELAAEALIQQGGLKCPVCSFVYGTKWEFNRHLKNKHGLKVVEIDGDPKWEPAAETPEEPSTQYLYITEAEDVQGTQAAVAALQDLRYTSESGDRLDPTAVNILQQIIELGSETHDAAAVASVVAMAPGTVTVVKQVTDEEPSSNHTVMIQETLQQASVELAEQHHLVVSSDDVEGIETVTVYTQGGEASEFIVYVQEAVQPVEEQVGEQPAPEL | soluble
METTGDKAFYFLLKNCGHSLKFVDLRNSKRLHGRSFKLFGSQLESLYLDGSSKVDEMAFEDLCTSCGGLKELRINECYKITDENLSMIARRMEDLSILTLCGDGFKSLTSAGLIHISHMRNITELALDYNALVNDELLISISAGLPLLSSLSLANAGNDSSITAEGVSAIKNLKELTQLDASSLAAVNSKVLEQLGSLKKLEIIQLRNCTYLGDDGVRAKLRMPNIRHVDLSGSILVSNDSIQQFIKAFPSGPKLPPITLVVGGTAADASKLSVRGSRVVVDFSDYSTIVTMQTSQCSSSKFAIGGSASDAEGSDDEFEALTAQRSFYIDAVCGEEESPITDDGKLAEWAEKEARSLGLIKD | not soluble
METVTLSEARVYVGTYNKYNSGSLFGKWLDLSDYSDKDEFMEACRELHKDDQDPEFMFQDYENIPEALISESWLSDKFFELRDAIEKLSETQQEAFFVWCDHHNNDISEEDADDLISSFEDEYQGEYKDEEDYAYEIVEECYDLPEFAKTYFDYSAFARDLFMTDYWMDNGFVFRCA | not soluble
MEVARGLEGVLFTESRMCYIDGQQGKLYYYGIPIQELAEKSSFEETTFLLLHGRLPRRQELEEFSAALARRRALPAHLLESFKRYPVSAHPMSFLRTAVSEFGMLDPTEGDISREALYEKGLDLIAKFATIVAANKRLKEGKEPIPPREDLSHAANFLYMANGVEPSPEQARLMDAALILHAEHGFNASTFTAIAAFSTETDLYSAITAAVASLKGPRHGGANEAVMRMIQEIGTPERAREWVREKLAKKERIMGMGHRVYKAFDPRAGVLEKLARLVAEKHGHSKEYQILKIVEEEAGKVLNPRGIYPNVDFYSGVVYSDLGFSLEFFTPIFAVARISGWVGHILEYQELDNRLLRPGAKYVGELDVPYVPLEARE | soluble
MEVDGASDDEQEQIIRKLVKKPEFLSDEEDDSVEDQVVWECDVVVCNSTPNTEMFSVSYPSSKRDAWDAKRFPIARYKKNVRLLEMRFMTDTQLGSYDKKKAELMYMDGDVPKKGHGIDALRANDEIYEGRAFIHDHPIVNAIGFFKNGEFFIHPLTGAFEMHRSIQGLNKKKKSDGKSGKSDEDSSGEEEDVKPSSAAVRVKFSRPETERQKKRREASALHREKKIASDMWIPMKVHLKDGDPVAEKIDGISQNGLLLDDPEASRMSIRALVNRAIICGVKEELVIESGKEHMLSKQRIDDLPDPNLQLKAHMVKSHVMKTSEMRRLIDPSAMSTDKMIAKLKECASLVQGVWVLDSNLMFKNLAPAHSNTAGKTDLYRAELWRNARDLALCLIDGGHRVTRLTLMTCFKLSERDSDEILSTFGVKCEATRSWRLRVERDAQFLEDPAMKKHVVEQKAKWVQKFNELEKSLQESPAKSPKKK | not soluble
MEVMRGVRVIEGMNGGRFPYCNVVVVGDVVIDAGAGLEVMRKVNASLLVLSHLHPDHSSGAWLFKDVLAPAEGRITLDTLARRFVAPDLVESWKRFISAATGLREFECERYEEGVVVKEPEIVAVPVKGHTMDHHVFLIEQKVLFGADVDLTSFGPFYGNPEADPYLFEREMDKLLDIDFEIFVSAHSKPVFGKELEHHHHHH | not soluble
MEWIERLNKAMSYIEEHITEEIDFEQTAKIACCSAYHFQRMFTYMAGIPLSEYIRRRRMTLAAVELQSSDEKVIDIALKYGYASPTAFNRAFQSVQGITPSAAKKKGTPVKSYPPLSFAITIKGVEGMNYRIEEKEAFRIIGIAQSMSKNLEENFAVVPQMWGKAAADGTIQKLASMIEGQPAGLLGVSICNNEEDWRYFIAVSGTRPAEAPFEEYRVPASTWAVFPGTGTNLSVQDLERRIVTEWLPTSGYEYGSAPDIEVYISPNPENAKYEVWIPVVKKQ | not soluble
MEYGCQPNVLKKTILKMVKRRIHVEGAKKAVNEALLNSQAKAAEEICRIAYESPGGVVFLGAPTGAGKTEVFMAPLLASFASKRPIAARGFLVEPMHSLIKAMVDRLKTSIETLGVSEDHGETVQPTFLYTAPITVTTPDTYFYGFAASRVYRILTHEGVETGRFSMPVGLQATSYTVFDEAHLVQDEVFLSPRLLSLVVAALARAGGLIVVSSATLPSYYKTVIREKLGDWRVEEV | not soluble
MFADLDYDIEEDKLGIPTVPGKVTLQKDAQNLIGISIGGGAQYCPCLYIVQVFDNTPAALDGTVAAGDEITGVNGRSIKGKTKVEVAKMIQEVKGEVTIHYNKLQADPKQGMSLDIVLKKVKHRLVENMSSGTADALGLSRAILCNDGLVKRLEELERTAELYKGMTEHTKNLLRAFYELSQTHRAFGDVFSVIGVREPQPAASEAFVKFADAHRSIEKFGIRLLKTIKPMLTDLNTYLNKAIPDTRLTIKKYLDVKFEYLSYCLKVKEMDDEEYSCIALGEPLYRVSTGNYEYRLILRCRQEARARFSQMRKDVLEKMELLDQKHVQDIVFQLQRLVSTMSKYYNDCYAVLRDADVFPIEVDLAHTTLAYGLNQEEFTDGEEEEEEEDTAAGEPSRDTRGAAGPLDKGGSWCDS | soluble
MFADLDYDIEEDKLGIPTVPGKVTLQKDAQNLIGISIGGGAQYCPCLYIVQVFDNTPAALDGTVAAGDEITGVNGRSIKGKTKVEVAKMIQEVKGEVTIHYNKLQADPKQLEVLFNGPGIESVKI | soluble
MFALVLFVCYLDGGCEDIVVDIYDTEQHCLYSMDDQRIRHGGCFPVEDFIDGFWRPAQQYSDFLEHHHHHH | not soluble
MFAPQGLAQFIKVNVTLENGEPVFIYTDANGQVCQGDITVTQAGTITYLLNDQTLKGLKFVGVGFVTPFDGIIDAVTISSDGMLVQLVDLDKTPGTTKFQFVLSNTANTLLVLSPDPQIINRPQN | soluble
MFARIESGKIIAQKRKELGKTQKVLAEETNVNKSIISQIENGKFSGSLRVYEKYINGLGLELAVRPIKSKIPDFDNLHHLFPDE | not soluble
MFDRSRKGEYALLIQPLTDHSAEDGALEEFADLTRSAGATVAGSLAVRIHRPNPSTLLSSGKLKEIKETADATGADLILINHSLSPVQERNLEKSLERRVIDRTGLILDIFAQRACSHEGKLQVELAQLRHLATRLVRGWTHLERQRGGAIGLRGPGETQLETDRRLLQKRVEQLQKRLSKVEVQRTQMRRARVRSEVPRIALVGYTNSGKSTLFNALTGASAYTANQLFATLDPKVRRIVLPGSSAMLADTVGFVRHLPHELVAAFRSTLSEAREADLLLHVIDAADPLREERIDQVDEVLQAIGAGELPQLLVFNKIDCIEGAEVRQDAQDGIPDQARRERVWLSARHGHGVELLQQILNHRLKIQNVQSELRLPPSEGRLRARLHELKGVREEQTDEHGWLLKIDLSLAEIERLAASDYGIPLRALLQDHRDAWTPTLHSKYVSAEYLEHHHHHH | not soluble
MFDSTLNPLWQRYILAVQEEVKPALGCTEPISLALAAAVAAAELEGPVERVEAWVSPNLMKNGLGVTVPGTGMVGLPIAAALGALGGNANAGLEVLKDATAQAIADAKALLAAGKVSVKIQEPCDEILFSRAKVWNGEKWACVTIVGGHTNIVHIETHDGVVFTQQACVAEGEQESPLTVLSRTDAG | not soluble
MFEDLLQTKRLIKSYYYYPKLVLVINIAEYLYSKGRDVCIFNFDKIKWEYYPYNLNFHMKCNERSENIIFEAEDESEIPNNFSLVTSIKKLNLGIPQSEIQKLDQNLFKINIDNKIYLFRIIEGKIVEEKIKGLSEEIINILREYNELSLKEIVDILYHKTNSSRDNIRKEIYFLKDIGVIEIKNGKVLLNNNSWLKR | soluble
MFEGFKEVTDKDFYKAVMMNPKPSVVVFTDPNNPANEQIKPILEKYQKLYGDKIDFFYMDVTKNTSFEDFGIFNFPAILYFRDTMELDRHDFIPTEEMVEQAIKRLLRMV | not soluble
MFEGGHSKSFSIFPIRVVYMPVEQGEVPATILISVSKRRFKRAVKRNRVKRQIREVYRKNKQPLLDGLQNKGQRLAIAFIYLSDELVATAELEEKMKTALSRISEKLSL | not soluble
